Measured values published in IntAct's records for PubMed 16432186.

B1: Beta-arrestin-1 (Homo sapiens), P49407-1 (parent)
chain: MGDKGTRVFKKASPNGKLTVYLGKRDFVDHIDLVDPVDGVVLVDPEYLKERRVYVTLTCAFRYGREDLDVLGLTFRKDLFVANVQSFPPAPEDKKPLTRLQERLIKKLGEHAYPFTFEIPPNLPCSVTLQPGPEDTGKACGVDYEVKAFCAENLEEKIHKRNSVRLVIRKVQYAPERPGPQPTAETTRQFLMSDKPLHLEASLDKEIYYHGEPISVNVHVTNNTNKTVKKIKISVRQYADICLFNTAQYKCPVAMEEADDTVAPSSTFCKVYTLTPFLANNREKRGLALDGKLKHEDTNLASSTLLREGANREILGIIVSYKVKVKLVVSRGGLLGDLASSDVAVELPFTLMHPKPKEEPPHREVPENETPVDTNLIELDTNDDDIVFEDFARQRLKGMKDDKEEEEDGTGSPQLNNR

Variants of: B1
Settings: with src_human SRC

Row | Variant | effect of a mutation on the interaction
1 | MGDKGTRVFKKASPNGKLTVYLGKRDFVDHIDLVDPVDGVVLVDPEYLKERRVYVTLTCAFRYGREDLDVLGLTFRKDLFVANVQSFPPAPEDKKPLTRLQERLIKKLGEHAYPFTFEIPPNLPCSVTLQPGPEDTGKACGVDYEVKAFCAENLEEKIHKRNSVRLVIRKVQYAPERPGPQPTAETTRQFLMSDKPLHLEASLDKEIYYHGEPISVNVHVTNNTNKTVKKIKISVRQYADICLFNTAQYKCPVAMEEADDTVAPSSTFCKVYTLTPFLANNREKRGLALDGKLKHEDTNLASSTLLREGANREILGIIVSYKVKVKLVVSRGGLLGDLASSDVAVELPFTLMHPKPKEEPPHREVPENETPVDTNLIELDTNDDDIVFEDFARQRLKGMKDDKEEEEDGTGDPQLNNR [S412D] | disrupting interaction strength
